Laboratory results as given in patent publication US11466255B2, “Methods and compositions for converting non-endocrine pancreatic tissue into insulin-producing cells” (UNIVERSITY OF MIAMI, priority 2015, dated 2022).

Key:
[1] = tested on: hNEPT; assay: TLDA qRT-PCR gene expression in BMP-7-treated hNEPT; format: cell-based, human; conditions: BMP-7-treated vs untreated control
Procedure: The expression of 43 genes (including epithelial, acinar, islet and mesenchymal cell markers) was studied in hNEPT preparations (n=8) treated with BMP-7 and untreated controls at the same time point. […] GCK, MAFA and NKX6.1, as well as islet development markers HNF1B and NEUROD1 were also elevated.
hNEPT culture: Human islets were isolated at the DRI's cGMP facility following methods already described54, and hNEPT samples (2-4 ml) were obtained as an isolation byproduct. The cells were washed and seeded on tissue culture-treated plates in FBS- and trypsin inhibitor-supplemented RPMI 1640 medium (Gibco-Life Technologies, Grand Island, N.Y.). After 48 h, floating cells were removed with fresh medium replacement. The following day, cultures were either treated with 100 ng/ml BMP-7 (ProSpec-Tany TechnoGene; Ness Ziona, Israel) or remained in the starting medium as controls. Cells were allowed to grow 4-5 days and then the serum-containing medium was replaced by serum-free Advanced RPMI 1640 (Gibco-Life Technologies, Grand Island, N.Y.). Four to five days later the cells were either subjected to static incubation to evaluate their ability to respond to changing glucose concentration or collected for further assessments (such as C-peptide content, immunohistochemistry or cellular composition) or transplantation.
Quantitative Real Time RT-PCR: Samples were washed in PBS and resuspended in RNA later (Life Technologies—Ambion, Grand Island, N.Y.). RNA was extracted with the mirVana kit (Life Technologies-Applied Biosystems, Grand Island, N.Y.). 2 ng/μl of RNA was used for cDNA synthesis using High-Capacity cDNA Kit (Life Technologies-Applied Biosystems, Grand Island, N.Y.). Quantitative RT-PCR was performed with TaqMan assays (Life technologies—Applied Biosystems, Grand Island, N.Y.) following manufacturer's instructions. RNA expression was calculated as Relative Quantification (RQ) by Applied Biosystems software using the formula RQ=2−ddCT (ddCT=dCT of the sample−dCT of the control). dCT is the number of cycles normalized by endogenous control. Individual reactions were performed with a 7500 Fast Real Time PCR system (Life Technologies). Some experiments were performed using custom-made Taqman® Low Density Microarray (TLDA) cards containing 43 target genes and 3 endogenous genes (ubiquitin C, 18S rRNA and beta actin) and ran in a 7900 Real time PCR cycler (Life Technologies). Cts >35 were considered undetermined.

[2] = tested on: nude rat (RNU) grafts; assay: Local BMP-7 delivery to hNEPT or PR2Y1+/ALK3+ cells under kidney capsule of nude rats; format: in vivo; conditions: POD +21
Source text: The nude rat (RNU, Crl:NIH-Foxn1^rnu) is chosen over mice due to the specific BMP-7 local delivery system designed for this purpose, requiring surgical procedures for which a larger animal size would be beneficial. […] The kidney sub-capsular space of rodents is a well-established ectopic site for pancreatic cell (and particularly islet) transplantation^54,55. There are reports of success in the continuous delivery of compounds to pancreatic cells previously implanted under the kidney capsule of rats^38 using Alzet® osmotic pumps that release solution at a rate of 0.5 μl/h for 2 weeks.
While exocrine and endocrine cells coexist in the pancreas, cultured hNEPT lack native ECM for proper compartmentalization, and acinar secretions may be harmful for endocrine cells^37. Acinar cells present in hNEPT after BMP-7 treatment persist in grafts^17. This observation was hypothesized to be one reason behind the sub-optimal performance of BMP-7-treated hNEPT in vivo (see Example 2). […] The first phase of these studies transplants unfractionated hNEPT (0.5-1×10^7 cells) previously grown for 48h in attachment (prior to BMP-7 treatment) under the kidney capsule of nude rats. […] Rats are euthanized at POD +21 and their grafts analyzed by IF for C-peptide as well as the 15 pancreatic marker panel of Example 8. […]

B1: BMP-7: 35 kDa homodimeric protein of the TGF-β superfamily; FDA-approved agent; human mature chain SEQ ID NO:1/2 (protein, listed as Homo sapiens)
chain: IRSTGSKQRSQNRSKTPKNQEALRMANVAENSSSDQRQACKKHELYVSFRDLGWQDWIIAPEGYAAYYCEGECAFPLNSYMNATNHAIVQTLVHFINPETVPKPCCAPTQLNAISVLYFDDSSNVILKKYRNMVVRACGCH
modifications: homodimer; human mature chain of BMP-7 (NCBI Reference Sequence NM_001719.2) comprising peptide from 293-431
Q: What does the source list for B1?
A: GCK, MAFA, NKX6.1, HNF1B and NEUROD1 expression [1]: elevated; extra-insular genes KRT-19, CPA1 and PNLIP expression [1]: up-regulation; ZEB2 expression (up-regulated) ([1]; P<0.05): 1.6 fold; E-cadherin (CDH1) expression (up-regulated) ([1]; p<0.01): 6 fold; EMT marker ZEB1 expression (down-regulated) ([1]; p<0.01): 0.4 fold; PDX1 gene expression, average increase ([1]; same time point, n=8): 29 fold; glucagon gene expression, average increase ([1]; same time point, n=8): 92 fold; insulin gene expression, average increase ([1]; same time point, n=8): 40 fold; pancreatic polypeptide (PPY) gene expression, average increase ([1]; same time point, n=8): 14 fold; somatostatin (SST) gene expression, average increase ([1]; same time point, n=8): 28 fold; islet-like structures within the graft ([2]; PR2Y1+/ALK3+ cell graft, BMP-7 by iPRECIO pump): abundant islet-like structures within the graft; in vivo β-like cell formation compared to controls ([2]; unfractionated hNEPT graft, BMP-7 by pump for 14 d): Substantial in vivo β-like cell formation
